Data on four molecules can be found in US12649783B2, “Anti-MCT1 antibodies and uses thereof” (IMMUNEXT INC., priority 2018, dated 2026).

The subject of assay [1] is Tr1 cells. Description: ex vivo Tr1 survival. The class given is cell-based, human. As to the method: Humanized NSG mice (treated with anti-MCT1) were sacrificed on d32 or other day specified, single cells suspensions were prepared from spleens, followed by bead-based enrichment of hCD3+ cells. Isolated cells were plated with the analytes (see above table) to access Tr1 survival: […]

Assay [2] has as its target T1, MCT1 (Homo sapiens, UniProt P53985).
T1 construct: HEK-293 WT cells only express MCT1/CD147 and no other MCTs as measured by RT-PCR; endogenous in cells; host or cells: HEK293T
T1 sequence (P53985 1-500): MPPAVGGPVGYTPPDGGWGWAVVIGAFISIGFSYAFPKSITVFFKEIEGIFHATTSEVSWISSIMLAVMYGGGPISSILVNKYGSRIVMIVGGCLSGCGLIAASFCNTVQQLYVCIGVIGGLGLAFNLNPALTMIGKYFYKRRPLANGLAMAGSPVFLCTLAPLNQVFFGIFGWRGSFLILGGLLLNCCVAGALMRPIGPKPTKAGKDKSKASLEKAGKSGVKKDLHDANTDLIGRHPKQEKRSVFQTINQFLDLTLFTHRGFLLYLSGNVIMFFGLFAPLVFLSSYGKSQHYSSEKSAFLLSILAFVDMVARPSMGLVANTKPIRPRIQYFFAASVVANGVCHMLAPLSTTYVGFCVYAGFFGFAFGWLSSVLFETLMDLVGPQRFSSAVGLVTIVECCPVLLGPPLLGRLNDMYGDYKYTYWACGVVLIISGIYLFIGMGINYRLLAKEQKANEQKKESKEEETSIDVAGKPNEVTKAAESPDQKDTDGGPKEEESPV
Kind of assay: bromopyruvate toxicity assay (ATPlite). The class given is cell-based. The procedure:
Inhibition of bromopyruvate toxicity. Since MCT1 is the sole transporter necessary for the in vitro efficacy of the anti-cancer toxin bromopyruvate (Reference 66), a second cell-based functional assay was developed to measure the in vitro killing of cells using this toxin at a concentration of 150 μM.
HEK293T cells are pre-treated with anti-MCT1 antibody or small molecular MCT1 inhibitor at 37° C. for 1 hour. Cells are then incubated with a cytotoxic reagent 3-bromopyruvate (3-BrPy) at concentrations that rand from 25 to 500 μM for 2 to 6 hours. ATP from dying cells will be quantified using a commercial viability kit (ATPlite, PerkinElmer) in a 96-well plate and viability measured using luminescence. Reduction of ATP production indicates functionality of the antibody. A positive control antibody is the mouse or chimeric antibody before humanization. A negative control cell line is MCT1/CD147 double knockout 293T cells. Using this assay functional, i.e., antagonistic anti-MCT1 antibodies may be identified.
For orientation: ATP-based viability assays read luminescence as a measure of living cells.

For “IL-15: Recombinant Human IL-15 (carrier-free), Biolegend 570304”, the “ex vivo Tr1 survival” value in assay [1] was “increased ex vivo Tr1 survival in a dose-dependent manner”.

B1: IL-7: Recombinant Human IL-7 (carrier-free), Biolegend 581904 (protein, UniProt P13232 26-177, looked up)
Interleukin-7: DCDIEGKDGKQYESVLMVSIDQLLDSMKEIGSNCLNNEFNFFKRHICDANKEGMFLFRAARKLRQFLKMNSTGDFDLHLLKVSEGTTILLNCTGQVKGRKPAALGEAQPTKSLEENKSLKEQKKLNDLCFLKRLLQEIKTCWNKILMGTKEH
As to B1, in assay [1], the “ex vivo Tr1 survival” value is on record as “increased ex vivo Tr1 survival in a dose-dependent manner”.

B2: LM183: chicken anti-human MCT1 antibody; HC/LC SEQ ID NO: 164/169 (antibody)
heavy: AVTLDESGGGLQTPGGTLSLVCKASGFDFSNYEMLWVRQAPGKGLEYVAGIGDSASYSAYGVAVKGRATISRDNGQSTLRLQLNGLRAEDTGTYYCTKASEGSYWYYEAGGIDTWGHGTEVIVSS
light: ALTQPSSVSANLGGTVKITCSGGGGSYGWYQQKSPGSAPVTVIYDNDKRPSDIPSRFSGSKSGSTATLTITGVRAEDEAVYYCGSAGNSGAFGAGTTLTVL
modifications: HC Protein; LC Protein
Take B2: the “block of human MCT1 function” value in assay [2] is on record as “block human MCT1 function”.

B3: LM186: chicken anti-human MCT1 antibody; HC/LC SEQ ID NO: 184/189 (antibody)
heavy: AVTLDESGGGLQTPGGGLSLVCKASGFSFSSRGMFWVRQAPGKGLEYVAGIDNDGGYPNYGSAVKGRATISRDNRQSTVRLQLNNLRADDTGTYYCAKGAYGGGWYAASSIDAWGHGTEVIVSS
light: ALTQPSSVSANPGEAVKITCSGGVGQWYGWFQQKAPGSAPVTVIHDNTNRPSDIPSRFSGSKSGSTGTLTITGVQAEDEAVYFCANTYSDGNDAPFGAGTTLTVL
modifications: HC Protein; LC Protein
For the molecule B3, the “block of human MCT1 function” value in assay [2] is “block human MCT1 function”.
